The record followed here is patent US11306156.

Assay [1] addresses tissue factor (TF) antigen (UniProt P13726). As to the kind of experiment: SPR (ProteOn), Fab captured by anti-penta-His, TF as analyte, 1:1 fit.
Assay [2] shares this target. Briefly: SPR (ProteOn), against wild-type D3H44 Fab.

In general, Kd refers to a measure of binding affinity in units of concentration.

Sequence of tissue factor (TF) antigen (P13726 33-251 limits assumed): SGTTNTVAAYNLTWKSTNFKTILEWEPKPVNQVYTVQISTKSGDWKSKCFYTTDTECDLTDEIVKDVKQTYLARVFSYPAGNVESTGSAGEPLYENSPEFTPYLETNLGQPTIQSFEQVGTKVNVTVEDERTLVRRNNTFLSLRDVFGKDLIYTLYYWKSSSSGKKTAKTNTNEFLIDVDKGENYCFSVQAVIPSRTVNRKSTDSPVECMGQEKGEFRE

As for “D3H44 Fab heterodimer, H1L1 of LCCA set 9684 (H: L143E_K145T_Q179E; L: T178R)”, the equilibrium dissociation constant (Kd) in assay [1] came to 0.3 nM. This substance also registered a Change in KD with respect to wild type (-(log(KD design) - log(KD wt))) in assay [2] of -0.28.

Turning to “D3H44 Fab heterodimer, H1L1 of LCCA set 9688 (H: L143E_K145T_Q179E_S188L; L: Q124R_T178R)”, the Kd in assay [1] came out at 0.34 nM. In assay [2], this substance registered a Change in KD with respect to wild type (-(log(KD design) - log(KD wt))) of -0.34.

In assay [1], “D3H44 Fab heterodimer, H1L1 of LCCA set 9741 (H: L143R; L: Q124E_V133E_Q160F)” returned an equilibrium dissociation constant (Kd) of 0.07 nM. For the same substance, the Change in KD with respect to wild type (-(log(KD design) - log(KD wt))) in assay [2] is 0.34.

With “D3H44 Fab heterodimer, H1L1 of LCCA set 9803 (H: Q179R; L: Q124E_S131T_T178F_T180E)”, the equilibrium dissociation constant (Kd) in assay [1] was 0.11 nM. Besides, the Change in KD with respect to wild type (-(log(KD design) - log(KD wt))) in assay [2] was 0.14.

As to “D3H44 Fab heterodimer, H1L1 of LCCA set 9843 (H: S186K; L: Q124E_S131T_T178F_T180E)”, the Kd in assay [1] was 0.17 nM. For the same substance, the Change in KD with respect to wild type (-(log(KD design) - log(KD wt))) in assay [2] was -0.03.

In assay [1], “D3H44 Fab heterodimer, H1L1 of LCCA set 9863 (H: S186K; L: Q124E_T180E)” came in with a dissociation constant Kd of 0.06 nM. Further, the Change in KD with respect to wild type (-(log(KD design) - log(KD wt))) in assay [2] stood at 0.46.

Consider “D3H44 Fab heterodimer, H1L1 of LCCA set 9867 (H: S186R; L: Q124E_Q160E_T178E)”, for which the dissociation constant Kd in assay [1] came to 0.14 nM. Besides, the Change in KD with respect to wild type (-(log(KD design) - log(KD wt))) in assay [2] amounted to 0.06.

For “D3H44 Fab heterodimer, H1L1 of LCCA set 9885 (H: S186R; L: Q124E_S176L_T180E)”, the Kd in assay [1] is 0.18 nM. In assay [2], this substance showed a Change in KD with respect to wild type (-(log(KD design) - log(KD wt))) of -0.06.

In assay [1], “D3H44 Fab heterodimer, H1L1 of LCCA set 9887 (H: S186R; L: Q124E_T178E)” had a Kd of 0.14 nM. Also, the Change in KD with respect to wild type (-(log(KD design) - log(KD wt))) in assay [2] worked out at 0.06.

In the case of “D3H44 Fab heterodimer, H1L1 of LCCA set 9901 (H: S186R; L: Q124E_T180E)”, the Kd in assay [1] turned out to be 0.07 nM. In assay [2], this substance returned a Change in KD with respect to wild type (-(log(KD design) - log(KD wt))) of 0.36.

For the substance “D3H44 Fab heterodimer, H1L1 of LCCA set 9983 (H: Q179K; L: S131E)”, the dissociation constant (Kd) in assay [1] turned out to be 0.14 nM. The Change in KD with respect to wild type (-(log(KD design) - log(KD wt))) in assay [2] was determined as 0.05.

As to “D3H44 Fab heterodimer, H1L1 of LCCA set 9987 (H: L143E_K145T; L: Q124R_T178R)”, the Kd in assay [1] turned out to be 0.11 nM. For the same substance, in assay [2], the Change in KD with respect to wild type (-(log(KD design) - log(KD wt))) was determined as 0.15.

With “D3H44 Fab heterodimer, H1L1 of LCCA sets 9708, 9712 and 9716 (H: L143E_K145T_S188L; L: Q124R_Q160K_T178R)”, in assay [1], the equilibrium dissociation constant (Kd) was 0.24 nM. In addition, in assay [2], the Change in KD with respect to wild type (-(log(KD design) - log(KD wt))) was -0.19.

In turn, “D3H44 Fab heterodimer, H1L1 of LCCA sets 9763 and 9773 (H: Q179K; L: Q124E_Q160E_T180E)” displayed a dissociation constant Kd in assay [1] of 0.32 nM. In addition, the Change in KD with respect to wild type (-(log(KD design) - log(KD wt))) in assay [2] is -0.31.

As for “D3H44 Fab heterodimer, H1L1 of LCCA sets 9831, 9833 and 9841 (H: S186K; L: Q124E_Q160E_T180E)”, the dissociation constant (Kd) in assay [1] was 0.13 nM. The same substance returned a Change in KD with respect to wild type (-(log(KD design) - log(KD wt))) in assay [2] of 0.09.

“D3H44 Fab heterodimer, H1L1 of LCCA sets 9869, 9871, 9874, 9876 and 9879 (H: S186R; L: Q124E_Q160E_T180E)”: the dissociation constant Kd in assay [1] was determined as 0.05 nM. The substance also returned a Change in KD with respect to wild type (-(log(KD design) - log(KD wt))) in assay [2] of 0.51.

“D3H44 Fab heterodimer, H1L1 of LCCA sets 9881 and 9882 (H: S186R; L: Q124E_S131T_T178F_T180E)”: the Kd in assay [1] came out at 0.11 nM. In assay [2], this substance came in with a Change in KD with respect to wild type (-(log(KD design) - log(KD wt))) of 0.15.
